Source: PMC7954740, “Degradation of the low-calorie sugar substitute 5-ketofructose by different bacteria” (Applied Microbiology and Biotechnology, 2021)

Legend:
Test in all cases: purified protein
[1] = test system: O=C(CO)[C@@H](O)[C@H](O)C(=O)CO; format: biochemical, Gluconobacter oxydans; settings: NADPH co-substrate, pH 7, 35 °C (optimum)
purified protein [2] = substrate: NC(=O)C1=CN([C@@H]2O[C@H](COP(=O)(O)OP(=O)(O)OC[C@H]3O[C@@H](n4cnc5c(N)ncnc54)[C@H](OP(=O)(O)O)[C@@H]3O)[C@@H](O)[C@H]2O)C=CC1; format: biochemical, Clostridium pasteurianum; settings: 5-KF co-substrate, pH 6, 40 °C (optimum), varied: cofactor
purified protein [3] = substrate: O=C(CO)[C@@H](O)[C@H](O)C(=O)CO; format: biochemical, Clostridium pasteurianum; settings: NADPH co-substrate, pH 6, 40 °C (optimum)
purified protein [4] = substrate: NC(=O)C1=CN([C@@H]2O[C@H](COP(=O)(O)OP(=O)(O)OC[C@H]3O[C@@H](n4cnc5c(N)ncnc54)[C@H](OP(=O)(O)O)[C@@H]3O)[C@@H](O)[C@H]2O)C=CC1; settings: 5-KF co-substrate, pH 7.0, 30 °C, varied: cofactor
purified protein [5] = substrate: O=C(CO)[C@@H](O)[C@H](O)C(=O)CO; settings: NADPH co-substrate, pH 7.0, 30 °C, potassium phosphate
purified protein [6] = substrate: O=C(CO)[C@@H](O)[C@H](O)C(=O)CO; format: biochemical, Gluconobacter oxydans; settings: NADPH co-substrate, pH 7, 30 °C (optimum)

Molecule: GOX0644 (Gluconobacter oxydans 621H)
- Km [1]: 4000 ± 800 µM
- kcat [1]: 18.9 ± 1.2 s⁻¹

B1: CP-AKR (Clostridium pasteurianum DSM 525 = ATCC 6013) (protein)
chain: MVKSIKDVITLNNGVEIPQHGFGVYLITDEEKAYKAINKALEVGYRAFDTAQFYENEPLLGKILNESSLSRDELFITTKVANYNQGYDSTLSTVEQSLKDLRVDQLDLLLIHWPSKKRFFETWRAMEKLYNEKLVKAIGVSNYEIHHLEELISNSDIKPVIDQVESHPYLIQQELKDYVDKNNIAFQAWSPLGRGAVLKDPIIKIIAEQHNKSIAQVIIRWHLQKGNIVIPKSITPSRIEENADVYDFALTEEEMKIIDALNRAERTGDDPDSIYFQM
- Km (purified protein [2]): 12.4 ± 3.8 µM
- Km (purified protein [3]): 1300 ± 200 µM
- kcat (purified protein [3]): 29.3 ± 4.3 s⁻¹

B2: TM-KFR (Tatumella morbirosei) (protein)
chain: AEQQNFLSELTGSFSSPCNENPTVAMMEEAYRHQGINARYINCDVGKQQLEMAVAGAKAMGWRGFNCSIPNKQAILSYIDEVGTSAKVIGAVNCVIIREGKLTGENTDGKGFVEALKQQIDPEGKKLALLGAGGAARAIAVESALAGVSEITIINRDKAKGEALAELINANTDATATYVEWSSGLKVDKNFDILVNATSVGLDDAEAMPDIDTDSLSEELFVADVIPNPPQTALLRAASDKGCRTLNGLNMLVNQGALNLAYWFDTTADKAPMRKVLQTLFTG
- Km (purified protein [4]): 20.4 ± 11.5 µM
- Km (purified protein [5]): 6400 ± 600 µM
- kcat (purified protein [5]): 913.9 ± 85.2 s⁻¹

B3: GOX1432 (Gluconobacter oxydans 621H) (protein)
chain: MITRETLKSLPANVQAPPYDIDGIKPGIVHFGVGNFFRAHEAFYVEQILEHAPDWAIVGVGLTGSDRSKKKAEEFKAQDCLYSLTETAPSGKSTVRVMGALRDYLLAPADPEAVLKHLVDPAIRIVSMTITEGGYNINETTGAFDLENAAVKADLQNPEKPSTVFGYVVEALRRRRDAGGKAFTVMSCDNLRHNGNVARKAFLGYAKARDPELAKWIEENATFPNGMVDRITPTVSAEIAKKLNAASGLDDDLPLVAEDFHQWVLEDRFANGRPPLEKAGVQLVDDVTDWEHVKIRMLNAGHITLCFPGILVGYENVDDAIEDKDLRGNLENYLNKDVIPTLKAPPGMTLEGYRDSVISRFSNKAMSDQTLRIASDGCSKIQVFWTETVRRAIECKRDLSRIAFGIASYLEMLRGRDEKGGTYESSEPTYGEAQKKLAKADDFESALKLPAFDGWRDLDTSELDQKVIALRKVIREKGVKAAIPA
- Km (purified protein [6]): 42000 ± 5400 µM
- kcat (purified protein [6]): 214.6 ± 7.5 s⁻¹
